Columns and labels:
[1] = target: αvβ3 integrin (human) (UniProt P06756); assay: competition ELISA, displacement of biotinylated fibrinogen (6 nM) from immobilized αvβ3 (FIG. 4B)
[2] = target: αvβ3 integrin (human) (UniProt P06756); assay: competition ELISA, displacement of biotinylated vitronectin (10 nM) from immobilized αvβ3 (FIG. 4A)

- IC50 [1]: 6.3 nM
- IC50 [2]: 2.7 nM
Substance: αvβ3-specific monoclonal antibody LM609

Source: patent US20020150536A1
